Target: T1, recombinant full-length human CHD8 (human, UniProt Q9HCK8 1-2581)
T1 construct: CHD8, human, full length; no cleavage of the tag is described; also called full-length CHD8; full-length Chd8; source: Expi293F, transiently transfected, purified (StrepTactin XT 4-Flow resin)
Assay: SPR; Biacore T200; CHD8 amine-coupled to a C1 chip (1585 RU), BSA-coupled reference cell; BCL11A injected 2.62-5737.5 nM (1:3 series), 600 s association, 300 s dissociation; 25 °C, HBS-P+ (10 mM HEPES, 150 mM NaCl, 0.05% Tween 20, pH 7.4); steady-state fit of responses at 600 s
Settings: both partners purified

T1 sequence (Q9HCK8 whole entry): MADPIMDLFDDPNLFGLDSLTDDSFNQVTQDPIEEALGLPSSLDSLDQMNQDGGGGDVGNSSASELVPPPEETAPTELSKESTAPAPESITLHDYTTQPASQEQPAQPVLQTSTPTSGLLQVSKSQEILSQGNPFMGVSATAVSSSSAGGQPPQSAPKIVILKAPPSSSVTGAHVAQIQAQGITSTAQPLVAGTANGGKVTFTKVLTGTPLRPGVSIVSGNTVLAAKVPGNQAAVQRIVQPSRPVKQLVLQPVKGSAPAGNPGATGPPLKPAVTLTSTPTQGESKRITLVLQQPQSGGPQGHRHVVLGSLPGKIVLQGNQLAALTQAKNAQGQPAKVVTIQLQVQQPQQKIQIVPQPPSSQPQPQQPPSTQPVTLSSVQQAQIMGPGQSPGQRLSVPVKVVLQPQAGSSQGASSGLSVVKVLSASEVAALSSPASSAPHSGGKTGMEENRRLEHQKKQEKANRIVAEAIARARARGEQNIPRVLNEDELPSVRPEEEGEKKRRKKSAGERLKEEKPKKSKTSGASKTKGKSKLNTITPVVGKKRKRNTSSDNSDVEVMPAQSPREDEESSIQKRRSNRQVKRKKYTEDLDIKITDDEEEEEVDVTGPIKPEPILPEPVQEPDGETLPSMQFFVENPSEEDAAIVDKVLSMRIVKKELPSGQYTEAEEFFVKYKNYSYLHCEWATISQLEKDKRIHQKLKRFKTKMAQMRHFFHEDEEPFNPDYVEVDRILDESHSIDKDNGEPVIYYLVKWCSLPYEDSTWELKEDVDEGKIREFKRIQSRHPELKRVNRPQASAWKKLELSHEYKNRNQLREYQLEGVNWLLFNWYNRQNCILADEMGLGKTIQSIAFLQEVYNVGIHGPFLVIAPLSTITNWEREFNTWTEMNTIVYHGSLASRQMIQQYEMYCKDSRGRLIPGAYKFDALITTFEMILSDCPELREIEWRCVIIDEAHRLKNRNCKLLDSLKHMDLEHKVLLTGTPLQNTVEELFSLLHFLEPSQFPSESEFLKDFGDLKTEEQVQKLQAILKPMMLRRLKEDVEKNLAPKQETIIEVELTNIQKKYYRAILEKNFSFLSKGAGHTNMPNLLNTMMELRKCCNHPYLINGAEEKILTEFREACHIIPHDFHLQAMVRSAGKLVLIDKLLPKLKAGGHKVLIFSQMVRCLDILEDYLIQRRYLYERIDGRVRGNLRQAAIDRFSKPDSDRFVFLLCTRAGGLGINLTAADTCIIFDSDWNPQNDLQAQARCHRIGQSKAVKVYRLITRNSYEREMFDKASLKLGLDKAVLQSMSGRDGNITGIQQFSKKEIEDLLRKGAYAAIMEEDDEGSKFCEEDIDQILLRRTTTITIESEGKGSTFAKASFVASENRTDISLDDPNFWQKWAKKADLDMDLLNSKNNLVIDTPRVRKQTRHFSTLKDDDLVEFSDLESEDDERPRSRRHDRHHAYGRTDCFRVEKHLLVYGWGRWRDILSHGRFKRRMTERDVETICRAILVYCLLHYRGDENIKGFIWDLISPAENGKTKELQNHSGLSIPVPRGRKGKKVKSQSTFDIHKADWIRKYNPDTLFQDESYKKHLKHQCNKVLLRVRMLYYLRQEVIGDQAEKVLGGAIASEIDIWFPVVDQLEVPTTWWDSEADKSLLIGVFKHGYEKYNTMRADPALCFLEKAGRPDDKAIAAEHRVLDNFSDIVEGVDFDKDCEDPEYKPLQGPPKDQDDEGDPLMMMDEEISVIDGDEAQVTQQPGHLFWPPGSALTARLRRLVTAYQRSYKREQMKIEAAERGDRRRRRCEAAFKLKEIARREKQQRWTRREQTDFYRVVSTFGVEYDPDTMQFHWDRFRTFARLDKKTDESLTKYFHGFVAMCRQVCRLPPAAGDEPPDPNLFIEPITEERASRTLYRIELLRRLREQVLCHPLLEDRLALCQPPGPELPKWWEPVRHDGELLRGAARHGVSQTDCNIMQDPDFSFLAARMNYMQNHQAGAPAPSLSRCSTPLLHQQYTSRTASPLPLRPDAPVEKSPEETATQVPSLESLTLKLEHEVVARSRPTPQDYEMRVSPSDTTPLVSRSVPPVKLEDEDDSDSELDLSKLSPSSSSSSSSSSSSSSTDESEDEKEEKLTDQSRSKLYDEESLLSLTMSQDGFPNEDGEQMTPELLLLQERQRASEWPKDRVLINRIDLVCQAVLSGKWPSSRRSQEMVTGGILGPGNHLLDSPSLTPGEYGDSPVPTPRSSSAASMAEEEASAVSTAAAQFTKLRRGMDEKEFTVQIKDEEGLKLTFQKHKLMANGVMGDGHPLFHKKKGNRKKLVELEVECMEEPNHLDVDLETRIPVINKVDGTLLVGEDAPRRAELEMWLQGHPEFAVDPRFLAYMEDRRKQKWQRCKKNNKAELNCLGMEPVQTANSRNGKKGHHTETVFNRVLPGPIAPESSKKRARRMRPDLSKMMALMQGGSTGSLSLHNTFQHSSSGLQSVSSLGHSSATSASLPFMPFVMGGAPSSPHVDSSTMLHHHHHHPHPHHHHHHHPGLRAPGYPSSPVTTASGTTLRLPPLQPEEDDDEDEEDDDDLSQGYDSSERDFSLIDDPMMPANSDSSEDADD

Kd: 870 nM
B1: recombinant full-length human BCL11A (natural protein, UniProt Q9H165 1-835, looked up)
chain: MSRRKQGKPQHLSKREFSPEPLEAILTDDEPDHGPLGAPEGDHDLLTCGQCQMNFPLGDILIFIEHKRKQCNGSLCLEKAVDKPPSPSPIEMKKASNPVEVGIQVTPEDDDCLSTSSRGICPKQEHIADKLLHWRGLSSPRSAHGALIPTPGMSAEYAPQGICKDEPSSYTCTTCKQPFTSAWFLLQHAQNTHGLRIYLESEHGSPLTPRVGIPSGLGAECPSQPPLHGIHIADNNPFNLLRIPGSVSREASGLAEGRFPPTPPLFSPPPRHHLDPHRIERLGAEEMALATHHPSAFDRVLRLNPMAMEPPAMDFSRRLRELAGNTSSPPLSPGRPSPMQRLLQPFQPGSKPPFLATPPLPPLQSAPPPSQPPVKSKSCEFCGKTFKFQSNLVVHRRSHTGEKPYKCNLCDHACTQASKLKRHMKTHMHKSSPMTVKSDDGLSTASSPEPGTSDLVGSASSALKSVVAKFKSENDPNLIPENGDEEEEEDDEEEEEEEEEEEEELTESERVDYGFGLSLEAARHHENSSRGAVVGVGDESRALPDVMQGMVLSSMQHFSEAFHQVLGEKHKRGHLAEAEGHRDTCDEDSVAGESDRIDDGTVNGRGCSPGESASGGLSKKLLLGSPSSLSPFSKRIKLEKEFDLPPAAMPNTENVYSQWLAGYAASRQLKDPFLSFGDSRQSPFASSSEHSSENGSLRFSTPPGELDGGISGRSGTGSGGSTPHISGPGPGRPSSKEGRRSDTCEYCGKVFKNCSNLTVHRRSHTGERPYKCELCNYACAQSSKLTRHMKTHGQVGKDVYKCEICKMPFSVYSTLEKHMKKWHSDRVLNNDIKTE
notes: BCL11A, human, full length; no cleavage of the tag is described; also called full-length BCL11A; source: Expi293F, transiently transfected, purified (StrepTactin XT 4-Flow resin)

Reference: article PMC12170886, “CHD8 interacts with BCL11A to induce oncogenic transcription in triple negative breast cancer” (The EMBO Journal, 2025)
